Assay results published in paper PMC3365889.

Tests used:
[1] = target: T1, human synaptogyrin 1, transcript variant 1b, construct 5 (N-terminal His tag with TEV cleavage site) (human), O43759; test: cross-linking; DDM-solubilised and purified synaptogyrin 1, 0.25 mM DSS, room temperature, quenched with 200 mM Tris at time points; SDS-PAGE and Western blot with His probe
T1 chain: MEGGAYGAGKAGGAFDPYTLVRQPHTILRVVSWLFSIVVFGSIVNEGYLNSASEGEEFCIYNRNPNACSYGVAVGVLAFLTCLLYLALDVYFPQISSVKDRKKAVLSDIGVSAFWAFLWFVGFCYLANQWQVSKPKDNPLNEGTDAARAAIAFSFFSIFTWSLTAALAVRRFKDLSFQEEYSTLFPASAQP

[2] = target: T1, human synaptogyrin 1, transcript …; test: cross-linking; Triton X-100-solubilised and purified synaptogyrin 1, 1 mM glutaraldehyde, room temperature, quenched with 200 mM Tris at time points; SDS-PAGE and Western blot with His probe
[3] = target: T1, human synaptogyrin 1, transcript …; test: SDS-PAGE (SDS-resistant dimer); SDS-PAGE of fractions from the large-scale IMAC purification in DDM
[4] = target: T1, human synaptogyrin 1, transcript …; test: cross-linking; crude E. coli membranes, 2 mM DMS, room temperature, quenched with 200 mM Tris at time points; SDS-PAGE and Western blot with His probe

stoichiometry N [1]: > 4
stoichiometry N [2]: > 4
stoichiometry N [3]: 2
stoichiometry N [4]: > 4
B1: human synaptogyrin 1, transcript variant 1b, construct 5 (N-terminal His tag with TEV cleavage site), O43759-2 1-191 (natural protein)
chain: T1 chain
